Patent publication US11352401

Target: T1, HLA-A*01 (human)
T1 construct: MHC monomer made peptide-receptive by UV cleavage of a UV-sensitive ligand; also called peptide-receptive MHC class I monomer
Test: UV peptide-exchange ELISA; ++++ = yield >75%
Description: (§1) Candidate peptides for T cell based therapies according to the present invention were further tested for their MHC binding capacity (affinity). The individual peptide-MHC complexes were produced by UV-ligand exchange, where a UV-sensitive peptide is cleaved upon UV-irradiation, and exchanged with the peptide of interest as analyzed. Only peptide candidates that can effectively bind and stabilize the peptide-receptive MHC molecules prevent dissociation of the MHC complexes. To determine the yield of the exchange reaction, an ELISA was performed based on the detection of the light chain (β2m) of stabilized MHC complexes. The assay was performed as generally described in Rodenko et al. (Rodenko et al., 2006).
(§2) 96 well MAXISorp plates (NUNC) were coated over night with 2 ug/ml streptavidin in PBS at room temperature, washed 4× and blocked for 1 h at 37° C. in 2% BSA containing blocking buffer. […] Peptide-MHC monomers of the UV-exchange reaction were diluted 100-fold in blocking buffer. Samples were incubated for 1 h at 37° C., washed four times, incubated with 2 ug/ml HRP conjugated anti-β2m for 1h at 37° C., washed again and detected with TMB solution that is stopped with […]. Absorption was measured at 450 nm.

Binder | peptide exchange yield
ETEQTKFWDY [ETEQTKFWDY (SEQ ID NO: 406)] | > 75%

Target: T2, HLA-A*24 (human)
T2 construct: MHC monomer made peptide-receptive by UV cleavage of a UV-sensitive ligand; also called peptide-receptive MHC class I monomer
Test: UV peptide-exchange ELISA; ++++ = yield >75%
Description: as §1, §2

Binder | peptide exchange yield
RYMKKDYLI [RYMKKDYLI (SEQ ID NO: 5)] | > 75%
VWSNVTPLKF [VWSNVTPLKF (SEQ ID NO: 2)] | > 75%
MYPDLSELLM [MYPDLSELLM (SEQ ID NO: 24)] | > 75%
MQPRMFFLF [MQPRMFFLF (SEQ ID NO: 34)] | > 75%
PFLPPAACFF [PFLPPAACFF (SEQ ID NO: 8)] | > 75%
KYITNLEDL [KYITNLEDL (SEQ ID NO: 53)] | > 75%
KYADYFLEV [KYADYFLEV (SEQ ID NO: 47)] | > 75%
VYDQYFITL [VYDQYFITL (SEQ ID NO: 74)] | > 75%
AYLSAVGTF [AYLSAVGTF (SEQ ID NO: 44)] | > 75%
QYQNVLTLW [QYQNVLTLW (SEQ ID NO: 31)] | > 75%
KYALLLQDL [KYALLLQDL (SEQ ID NO: 15)] | > 75%
KYALLLQEL [KYALLLQEL (SEQ ID NO: 51)] | > 75%
VYVGAVNRI [VYVGAVNRI (SEQ ID NO: 377)] | > 75%
LYISEVRNI [LYISEVRNI (SEQ ID NO: 49)] | > 75%
HYTYILEVF [HYTYILEVF (SEQ ID NO: 13)] | > 75%
TYSKKHFRI [TYSKKHFRI (SEQ ID NO: 381)] | > 75%
IMPEKFEFW [IMPEKFEFW (SEQ ID NO: 69)] | > 75%
RFLPSPVVI [RFLPSPVVI (SEQ ID NO: 82)] | > 75%
RYPGKFYRV [RYPGKFYRV (SEQ ID NO: 67)] | > 75%
KFIISDWRF [KFIISDWRF (SEQ ID NO: 23)] | > 75%
PYTNYTFDF [PYTNYTFDF (SEQ ID NO: 70)] | > 75%
QYLPGWTVLF [QYLPGWTVLF (SEQ ID NO: 30)] | > 75%
YYSIISHTL [YYSIISHTL (SEQ ID NO: 28)] | > 75%

Binder | peptide exchange yield
LYQEILAQL [LYQEILAQL (SEQ ID NO: 62)] | > 75%
EFTTVLYNF [EFTTVLYNF (SEQ ID NO: 20)] | > 75%
LYPEGLRLL [LYPEGLRLL (SEQ ID NO: 81)] | > 75%
KYKDYFPVI [KYKDYFPVI (SEQ ID NO: 6)] | > 75%
KTPTNYYLF [KTPTNYYLF (SEQ ID NO: 26)] | > 75%
QYDPTPLTW [QYDPTPLTW (SEQ ID NO: 1)] | > 75%
KYTNWKAFL [KYTNWKAFL (SEQ ID NO: 38)] | > 75%
VYSDLHAFYY [VYSDLHAFYY (SEQ ID NO: 375)] | > 75%
VYMIEPLEL [VYMIEPLEL (SEQ ID NO: 56)] | > 75%
IYQQIIQTY [IYQQIIQTY (SEQ ID NO: 68)] | > 75%
TLPNTIYRF [TLPNTIYRF (SEQ ID NO: 42)] | > 75%
KYLEESVWL [KYLEESVWL (SEQ ID NO: 35)] | > 75%
KYVKDFHKF [KYVKDFHKF (SEQ ID NO: 376)] | > 75%
RYLADLPTL [RYLADLPTL (SEQ ID NO: 79)] | > 75%
TWFPKTPMLF [TWFPKTPMLF (SEQ ID NO: 78)] | > 75%
DYIGSVEKW [DYIGSVEKW (SEQ ID NO: 18)] | > 75%
SLPDLTPTF [SLPDLTPTF (SEQ ID NO: 32)] | > 75%
KYVKVFDKF [KYVKVFDKF (SEQ ID NO: 384)] | > 75%
SYEKVINYL [SYEKVINYL (SEQ ID NO: 4)] | > 75%
VFIDHPVHLKF [VFIDHPVHLKF (SEQ ID NO: 48)] | > 75%
YPSIIQEF [YPSIIQEF (SEQ ID NO: 57)] | > 75%
RWMDQRLVF [RWMDQRLVF (SEQ ID NO: 55)] | > 75%
KFLGPAEHLTF [KFLGPAEHLTF (SEQ ID NO: 378)] | > 75%

Binder | peptide exchange yield
KYFVPPQLF [KYFVPPQLF (SEQ ID NO: 45)] | > 75%
IYFRDSSFL [IYFRDSSFL (SEQ ID NO: 66)] | > 75%
YYSPLRDLL [YYSPLRDLL (SEQ ID NO: 80)] | > 75%
VYPASKMFPFI [VYPASKMFPFI (SEQ ID NO: 65)] | > 75%
NYTLYPITF [NYTLYPITF (SEQ ID NO: 27)] | > 75%
QWPWQASLQF [QWPWQASLQF (SEQ ID NO: 37)] | > 75%
VYPLLSRLYW [VYPLLSRLYW (SEQ ID NO: 29)] | > 75%
TQPGDWTLF [TQPGDWTLF (SEQ ID NO: 22)] | > 75%
SYPELVKMVW [SYPELVKMVW (SEQ ID NO: 50)] | > 75%
YYSKSVGFMQW [YYSKSVGFMQW (SEQ ID NO: 11)] | > 75%
TYCQNIKEF [TYCQNIKEF (SEQ ID NO: 83)] | > 75%
RYEGILYTI [RYEGILYTI (SEQ ID NO: 72)] | > 75%
KYMKIFHKF [KYMKIFHKF (SEQ ID NO: 52)] | > 75%
SYMVLAPVF [SYMVLAPVF (SEQ ID NO: 71)] | > 75%
AFPVTSIFHTF [AFPVTSIFHTF (SEQ ID NO: 46)] | > 75%
NYAIFDEGHML [NYAIFDEGHML (SEQ ID NO: 64)] | > 75%
VWSDVTPLNF [VWSDVTPLNF (SEQ ID NO: 10)] | > 75%
SYNGYVFYL [SYNGYVFYL (SEQ ID NO: 25)] | > 75%
QFAAPLRGIYF [QFAAPLRGIYF (SEQ ID NO: 58)] | > 75%
NYIYSISVF [NYIYSISVF (SEQ ID NO: 75)] | > 75%
VMPSDSFFF [VMPSDSFFF (SEQ ID NO: 63)] | > 75%
